Reference: US7109167
One block for each substance: values may come before it.

Experiments:
[1] = target: endothelial cell receptor for TKPPR on human aortic endothelial cells (HAEC); experiment: fluorescent beads on confluent HAEC, static, Experiment 1, image analysis
[2] = target: endothelial cell receptor for TKPPR on human aortic endothelial cells (HAEC); experiment: competition on HAEC: VEGF121 100 ng/ml against 2% BRU-114 bubbles
[3] = target: endothelial cell receptor for TKPPR on human aortic endothelial cells (HAEC); experiment: competition on HAEC: VEGF121 200 ng/ml against 2% BRU-114 bubbles
[4] = target: endothelial cell receptor for TKPPR on human aortic endothelial cells (HAEC); experiment: competition on HAEC: VEGF121 400 ng/ml against 2% BRU-114 bubbles
[5] = target: endothelial cell receptor for TKPPR on human aortic endothelial cells (HAEC); experiment: competition on HAEC: VEGF165 against 5% BRU-114 bubbles
[6] = target: endothelial cell receptor for TKPPR on human aortic endothelial cells (HAEC); experiment: competition on HAEC: VEGF165 25 ng/ml against 5% BRU-114 bubbles
[7] = target: endothelial cell receptor for TKPPR on human aortic endothelial cells (HAEC); experiment: competition on HAEC: VEGF165 50 ng/ml against 5% BRU-114 bubbles
[8] = target: endothelial cell receptor for TKPPR on human aortic endothelial cells (HAEC); experiment: competition on HAEC: VEGF165 75 ng/ml against 5% BRU-114 bubbles
[9] = target: endothelial cell receptor for TKPPR on human aortic endothelial cells (HAEC); experiment: competition on HAEC: VEGF165 25 ng/ml against 2% BRU-114 bubbles
[10] = target: endothelial cell receptor for TKPPR on human aortic endothelial cells (HAEC); experiment: competition on HAEC: VEGF165 100 ng/ml against 2% BRU-114 bubbles
[11] = target: endothelial cell receptor for TKPPR on human aortic endothelial cells (HAEC); experiment: competition on HAEC: VEGF165 200 ng/ml against 2% BRU-114 bubbles
[12] = target: endothelial cell receptor for TKPPR on human aortic endothelial cells (HAEC); experiment: competition on HAEC: VEGF165 12.5 ng/ml against 5% BRU-114 bubbles
[13] = target: endothelial cell receptor for TKPPR on human aortic endothelial cells (HAEC); experiment: competition on HAEC: VEGF165 6.25 ng/ml against 5% BRU-114 bubbles
[14] = target: endothelial cell receptor for TKPPR on human aortic endothelial cells (HAEC); experiment: competition on HAEC: KDR/Fc 125 ng/ml against 5% BRU-114 bubbles
[15] = target: endothelial cell receptor for TKPPR on human aortic endothelial cells (HAEC); experiment: competition on HAEC: KDR/Fc 250 ng/ml against 5% BRU-114 bubbles
[16] = target: endothelial cell receptor for TKPPR on human aortic endothelial cells (HAEC); experiment: competition on HAEC: KDR/Fc 500 ng/ml against 5% BRU-114 bubbles
[17] = target: endothelial cell receptor for TKPPR on human aortic endothelial cells (HAEC); experiment: competition on HAEC: KDR/Fc 1000 ng/ml against 5% BRU-114 bubbles
[18] = target: endothelial cell receptor for TKPPR on human aortic endothelial cells (HAEC); experiment: competition on HAEC: KDR/Fc 2500 ng/ml against 5% BRU-114 bubbles

Chain of soluble human KDR/Fc chimera (R&D Systems) (P35968 20-764, change not shown): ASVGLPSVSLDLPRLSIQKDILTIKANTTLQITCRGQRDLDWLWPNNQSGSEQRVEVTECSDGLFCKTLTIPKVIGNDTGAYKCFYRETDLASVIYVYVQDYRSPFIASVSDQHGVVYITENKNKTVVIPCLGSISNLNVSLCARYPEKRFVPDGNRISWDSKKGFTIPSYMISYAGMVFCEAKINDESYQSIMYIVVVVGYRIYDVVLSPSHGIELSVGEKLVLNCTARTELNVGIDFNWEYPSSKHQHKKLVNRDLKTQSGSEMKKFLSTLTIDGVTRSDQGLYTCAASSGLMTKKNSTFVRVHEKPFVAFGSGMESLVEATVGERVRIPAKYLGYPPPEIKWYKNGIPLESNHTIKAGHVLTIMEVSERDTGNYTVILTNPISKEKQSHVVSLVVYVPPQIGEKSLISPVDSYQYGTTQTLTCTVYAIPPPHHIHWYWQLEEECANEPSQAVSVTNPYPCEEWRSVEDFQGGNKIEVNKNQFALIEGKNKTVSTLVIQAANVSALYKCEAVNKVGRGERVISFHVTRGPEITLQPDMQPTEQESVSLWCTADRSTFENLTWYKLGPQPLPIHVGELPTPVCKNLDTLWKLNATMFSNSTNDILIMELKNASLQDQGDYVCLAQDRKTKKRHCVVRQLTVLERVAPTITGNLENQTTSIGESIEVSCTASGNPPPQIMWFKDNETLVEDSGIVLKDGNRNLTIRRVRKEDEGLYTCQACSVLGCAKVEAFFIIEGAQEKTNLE

- Integrated density of bound beads (arbitrary units) [1]: 1.61
Substance: BSA-conjugated fluorescent microspheres (from UniProt P02769 25-607)

- Bubbles Bound [2]: 878 bubbles
- Bubbles Bound [3]: 849 bubbles
- Bubbles Bound [4]: 778 bubbles
Substance: VEGF121 (from UniProt P15692 27-147) (ligand)

- IC50 [5]: 0.0125 µg/mL
- Bubbles Bound [6]: 342 bubbles
- Bubbles Bound [7]: 226 bubbles
- Bubbles Bound [8]: 190 bubbles
- Bubbles Bound [9]: 144 bubbles
- Bubbles Bound [10]: 94 bubbles
- Bubbles Bound [11]: 70 bubbles
- Bubbles Bound [12]: 599 bubbles
- Bubbles Bound [13]: 1180 bubbles
Substance: VEGF165 (from UniProt P15692 27-191) (ligand)

- Bubbles Bound [14]: 1030 bubbles
- Bubbles Bound [15]: 786 bubbles
- Bubbles Bound [16]: 342 bubbles
- Bubbles Bound [17]: 75 bubbles
- Bubbles Bound [18]: 84 bubbles
Substance: soluble human KDR/Fc chimera (R&D Systems) (from UniProt P35968 20-764) (Fc fusion)
